The record followed here is article PMC10786891, “Massively parallel profiling of RNA-targeting CRISPR-Cas13d”.

Sequences and labels used below:
B1: target 3 insC 3' of 5,insG 3' of 1 (mixed)
RNA 1: CACCCGUGCAAAAUUGCAGGGGUCUAAAACGACCUGAAUAUUUCAGAUCAAA
RNA 2: GGGAAUGGAUCCACAUCUACGAAUUCGUUUUUGAUCUGAAAUAUUCACGGUCGUGCAGAUCGGAAGAGCACACGU
B2: target 3 insG 3' of 9,insG 3' of 5 (mixed)
RNA 1: B1 RNA 1
RNA 2: B1 RNA 2 with U44G, C46U, A47C, C48A, U51G, C52U, G53C
B3: target 3 del5 (mixed)
RNA 1: B1 RNA 1
RNA 2: GGGAAUGGAUCCACAUCUACGAAUUCGUUUUUGAUCUGAAAUAUUCGGUCUGCAGAUCGGAAGAGCACACGU
B4: target 3 insG 3' of 6,insG 3' of 5 (mixed)
RNA 1: B1 RNA 1
RNA 2: B1 RNA 2 with A47G, C48A, U51G, C52U, G53C
B5: target 3 insC 3' of 11 (mixed)
RNA 1: B1 RNA 1
RNA 2: GGGAAUGGAUCCACAUCUACGAAUUCGUUUUUGAUCUGAAACUAUUCAGGUCUGCAGAUCGGAAGAGCACACGU
B6: target 3 U2C,U7G (mixed)
RNA 1: B1 RNA 1
RNA 2: GGGAAUGGAUCCACAUCUACGAAUUCGUUUUUGAUCUGAAAUAUGCAGGCCUGCAGAUCGGAAGAGCACACGU
B7: target 3 C6G,A11G (mixed)
RNA 1: B1 RNA 1
RNA 2: B6 RNA 2 with A41G, G45U, C46G, C50U
B8: target 3 insA 3' of 15,insU 3' of 1 (mixed)
RNA 1: B1 RNA 1
RNA 2: B1 RNA 2 with G38A, A39G, U42A, A43U, U44A, C46U, A47C, C48A, G53U
B9: target 3 C1U (mixed)
RNA 1: B1 RNA 1
RNA 2: B6 RNA 2 with G45U, C50U, C51U
B10: target 3 insA 3' of 22,insG 3' of 1 (mixed)
RNA 1: B1 RNA 1
RNA 2: GGGAAUGGAUCCACAUCUACGAAUUCGUUUAUUGAUCUGAAAUAUUCAGGUCGUGCAGAUCGGAAGAGCACACGU
B11: target 3 C1U,A12G (mixed)
RNA 1: B1 RNA 1
RNA 2: B6 RNA 2 with A40G, G45U, C50U, C51U
B12: target 3 insU 3' of 22,insA 3' of 21 (mixed)
RNA 1: B1 RNA 1
RNA 2: GGGAAUGGAUCCACAUCUACGAAUUCGUUUUUAUGAUCUGAAAUAUUCAGGUCUGCAGAUCGGAAGAGCACACGU
B13: target 3 C1G (mixed)
RNA 1: B1 RNA 1
RNA 2: B6 RNA 2 with G45U, C50U, C51G
B14: target 3 insG 3' of 10,insU 3' of 3 (mixed)
RNA 1: B1 RNA 1
RNA 2: B1 RNA 2 with A43G, U44A, C46U, A47C, C48A, C52U, G53C
B15: target 3 insU 3' of 22,insU 3' of 22 (mixed)
RNA 1: B1 RNA 1
RNA 2: B12 RNA 2 with A33U
B16: target 3 U2A,A12G (mixed)
RNA 1: B1 RNA 1
RNA 2: B6 RNA 2 with A40G, G45U, C50A
B17: target 3 G4U,C6U (mixed)
RNA 1: B1 RNA 1
RNA 2: B6 RNA 2 with G45U, C46U, G48U, C50U
B18: target 3 insU 3' of 3,insA 3' of 3 (mixed)
RNA 1: B1 RNA 1
RNA 2: B1 RNA 2 with C48G, G50U, U51A, C52U, G53C
B19: target 3 C1U,G3U (mixed)
RNA 1: B1 RNA 1
RNA 2: B6 RNA 2 with G45U, G49U, C50U, C51U
B20: target 3 C6U,A11C (mixed)
RNA 1: B1 RNA 1
RNA 2: B6 RNA 2 with A41C, G45U, C46U, C50U
B21: target 3 insG 3' of 11,insU 3' of 4 (mixed)
RNA 1: B1 RNA 1
RNA 2: GGGAAUGGAUCCACAUCUACGAAUUCGUUUUUGAUCUGAAAGUAUUCAGUGUCUGCAGAUCGGAAGAGCACACGU
B22: target 3 insU 3' of 5,insA 3' of 2 (mixed)
RNA 1: B1 RNA 1
RNA 2: B1 RNA 2 with C48U, C52A, G53C
B23: target 3 U21C (mixed)
RNA 1: B1 RNA 1
RNA 2: B6 RNA 2 with U31C, G45U, C50U
B24: target 3 insA 3' of 22,insC 3' of 2 (mixed)
RNA 1: B1 RNA 1
RNA 2: B10 RNA 2 with G53C
B25: target 3 G3C,U8C (mixed)
RNA 1: B1 RNA 1
RNA 2: B6 RNA 2 with U44C, G45U, G49C, C50U
B26: target 3 del8,del22 (mixed)
RNA 1: B1 RNA 1
RNA 2: GGGAAUGGAUCCACAUCUACGAAUUCGUUUUGAUCUGAAAUAUCAGGUCUGCAGAUCGGAAGAGCACACGU
B27: target 3 MT (mixed)
RNA 1: B1 RNA 1
RNA 2: B6 RNA 2 with G45U, C50U
B28: target 1 G15C,C22U (mixed)
RNA 1: CACCCGUGCAAAAAUGCAGGGGUCUAAAACUGAGCGGAUAACCUCUCUAUGG
RNA 2: GGGAAUGGAUCCACAUCUACGAAUUCGUAUCAUAGACAGGUUAUCCGCUCACCGAGAUCGGAAGAGCACACGU
B29: target 1 A20U,C21A (mixed)
RNA 1: B28 RNA 1
RNA 2: B28 RNA 2 with U30C, C31A, A32U, C37G
B30: target 1 insC 3' of 14 (mixed)
RNA 1: B28 RNA 1
RNA 2: GGGAAUGGAUCCACAUCUACGAAUUCGUACCAUAGAGACGGUUAUCCGCUCACCGAGAUCGGAAGAGCACACGU

Substitutions are numbered along the chain they refer to. Names may count otherwise.

The series addresses T1, EsCas13d, nuclease-dead (Eubacterium siraeum, UniProt B0MS50, R295A;H300A;R849A;H854A).
T1 sequence: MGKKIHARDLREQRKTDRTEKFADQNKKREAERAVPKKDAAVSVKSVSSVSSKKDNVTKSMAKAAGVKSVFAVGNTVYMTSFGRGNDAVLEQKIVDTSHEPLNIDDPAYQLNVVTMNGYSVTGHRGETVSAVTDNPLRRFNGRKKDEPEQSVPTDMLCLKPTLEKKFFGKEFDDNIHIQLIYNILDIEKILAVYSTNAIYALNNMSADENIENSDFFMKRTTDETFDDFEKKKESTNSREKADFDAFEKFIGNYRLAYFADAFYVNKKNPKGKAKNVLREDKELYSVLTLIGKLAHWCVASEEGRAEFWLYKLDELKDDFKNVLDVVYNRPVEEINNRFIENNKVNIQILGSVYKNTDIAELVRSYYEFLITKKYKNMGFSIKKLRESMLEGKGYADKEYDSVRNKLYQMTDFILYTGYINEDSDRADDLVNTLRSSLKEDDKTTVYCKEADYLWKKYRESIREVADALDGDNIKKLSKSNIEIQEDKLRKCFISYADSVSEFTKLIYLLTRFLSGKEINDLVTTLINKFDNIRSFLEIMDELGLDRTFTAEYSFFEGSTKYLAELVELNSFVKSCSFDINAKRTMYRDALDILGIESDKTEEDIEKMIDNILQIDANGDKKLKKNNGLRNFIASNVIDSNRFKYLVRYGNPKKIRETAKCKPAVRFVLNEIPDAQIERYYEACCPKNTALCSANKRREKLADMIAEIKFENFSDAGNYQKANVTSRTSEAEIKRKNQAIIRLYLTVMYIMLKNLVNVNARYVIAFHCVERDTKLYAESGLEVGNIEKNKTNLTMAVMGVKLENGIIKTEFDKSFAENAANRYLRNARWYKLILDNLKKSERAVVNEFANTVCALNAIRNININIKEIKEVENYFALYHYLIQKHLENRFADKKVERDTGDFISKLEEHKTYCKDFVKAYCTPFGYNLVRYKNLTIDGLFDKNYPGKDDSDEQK
Briefly: crRNA (strand 1, pre-loaded); Mg2+; 40 mM Tris-HCl pH 7.5, 150 mM NaCl, 6 mM MgCl2, 1 mM DTT, 0.1% Tween-20, 0.2 mg/ml BSA; 25 C; 10 min per concentration, then washed. The settings on record: tags: His6-TwinStrep-SUMO cleaved; N-terminal SNAP kept (SNAP-Surface 488); label: 3' end held by stalled T7 RNA polymerase.
B1 gave a Kd of 38.5 ± 13 nM.
The molecule B2 gave a Kd of 60 ± 13.5 nM.
With B3 the figure was 65.5 ± 12.5 nM; with B4, 8.85 ± 0.8 nM.
Next, B5: 83.5 ± 29 nM.
Next, B6: 86 ± 33 nM.
B7 had a Kd of 60 ± 18 nM.
Molecule B8 came in with a Kd of 51 ± 5 nM.
B9 displayed a Kd of 25.1 ± 3.15 nM.
In the case of B10, binding was characterised by a dissociation constant (Kd) of 34.5 ± 7.5 nM.
Next, B11: 60 ± 13.5 nM.
With B12 the figure was 28 ± 4 nM.
With B13, binding was characterised by a dissociation constant (Kd) of 28.8 ± 4.15 nM.
B14 registered a Kd of 111 ± 28.5 nM.
Next, B15: 24.1 ± 3 nM; B16: 38 ± 6 nM.
With B17 the figure was 7.45 ± 0.85 nM; with B18, 28.7 ± 3 nM; with B19, 45.5 ± 11.5 nM.
With B20 the figure was 63 ± 17.6 nM; with B21, 55.5 ± 10.5 nM; with B22, 21.2 ± 3.65 nM.
For B23, the Kd stood at 71 ± 18 nM.
B24 showed a Kd of 84.5 ± 23.5 nM.
In turn, B25 yielded a Kd of 71 ± 6 nM.
Next, B26: 74.5 ± 13 nM.
With B27 the figure was 15.6 ± 0.185 nM.
With B28 the figure was about 70 nM.
B29 registered a Kd of 29 ± 5 nM.
With B30 the figure was 43 ± 6 nM.
